Assay results published in the supplement of paper PMC10065799, “High-throughput profiling of sequence recognition by tyrosine kinases and SH2 domains using bacterial peptide display” (eLife, 2023).

Legend:
[1] = test system: Fer (mouse); assay: phosphorylation enrichment, bacterial display (enrichment ratio); higher = better substrate or ligand; peptides without Tyr show the background
[2] = target: EPHB1 (UniProt P54762); assay: as above
[3] = target: FGFR1 (UniProt P11362); assay: as above
[4] = target: FGFR3 (UniProt P22607); assay: as above
Sequence of FGFR3 (P22607 whole entry, looked up): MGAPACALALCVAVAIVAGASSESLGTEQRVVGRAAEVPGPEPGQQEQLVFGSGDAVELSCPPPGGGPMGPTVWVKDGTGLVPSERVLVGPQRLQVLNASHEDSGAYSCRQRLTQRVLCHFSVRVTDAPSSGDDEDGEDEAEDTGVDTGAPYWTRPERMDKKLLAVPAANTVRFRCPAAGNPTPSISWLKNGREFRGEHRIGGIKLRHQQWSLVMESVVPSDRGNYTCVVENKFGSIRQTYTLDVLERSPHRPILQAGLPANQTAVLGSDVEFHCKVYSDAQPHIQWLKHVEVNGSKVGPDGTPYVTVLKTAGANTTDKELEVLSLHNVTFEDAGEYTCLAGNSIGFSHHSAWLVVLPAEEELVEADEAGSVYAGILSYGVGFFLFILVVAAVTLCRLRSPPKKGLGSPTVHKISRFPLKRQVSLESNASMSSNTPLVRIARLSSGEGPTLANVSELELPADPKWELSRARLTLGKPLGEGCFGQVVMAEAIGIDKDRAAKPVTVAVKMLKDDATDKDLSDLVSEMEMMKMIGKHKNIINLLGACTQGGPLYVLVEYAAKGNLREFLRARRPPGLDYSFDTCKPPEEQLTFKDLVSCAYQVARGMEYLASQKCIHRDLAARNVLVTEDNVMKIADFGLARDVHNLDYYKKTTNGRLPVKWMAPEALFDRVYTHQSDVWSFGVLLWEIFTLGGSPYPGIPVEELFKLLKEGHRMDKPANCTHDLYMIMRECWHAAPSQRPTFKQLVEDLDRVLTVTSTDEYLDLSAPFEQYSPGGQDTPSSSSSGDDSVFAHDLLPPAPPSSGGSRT

[5] = target: Hck (UniProt P08631); assay: as above
[6] = target: Fyn (UniProt P06241); assay: as above
Sequence of Fyn (P06241 whole entry, looked up): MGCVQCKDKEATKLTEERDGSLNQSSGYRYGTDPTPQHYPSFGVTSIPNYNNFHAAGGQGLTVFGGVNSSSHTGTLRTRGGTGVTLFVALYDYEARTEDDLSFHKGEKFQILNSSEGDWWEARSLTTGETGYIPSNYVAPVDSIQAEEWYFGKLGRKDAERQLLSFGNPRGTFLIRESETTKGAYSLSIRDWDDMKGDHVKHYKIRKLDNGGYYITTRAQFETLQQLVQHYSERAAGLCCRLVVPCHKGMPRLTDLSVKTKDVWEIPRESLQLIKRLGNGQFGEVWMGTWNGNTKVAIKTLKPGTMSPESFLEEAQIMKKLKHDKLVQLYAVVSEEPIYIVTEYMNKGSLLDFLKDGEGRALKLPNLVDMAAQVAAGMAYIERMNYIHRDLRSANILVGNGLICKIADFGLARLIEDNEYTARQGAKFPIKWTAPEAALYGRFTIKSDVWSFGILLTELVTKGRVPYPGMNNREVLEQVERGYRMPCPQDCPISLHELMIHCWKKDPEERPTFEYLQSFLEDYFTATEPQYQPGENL

[7] = test system: AncSZ; assay: as above
[8] = test system: c-Abl (mouse); assay: as above
[9] = target: MERTK (UniProt Q12866); assay: as above
Sequence of MERTK (Q12866 whole entry, looked up): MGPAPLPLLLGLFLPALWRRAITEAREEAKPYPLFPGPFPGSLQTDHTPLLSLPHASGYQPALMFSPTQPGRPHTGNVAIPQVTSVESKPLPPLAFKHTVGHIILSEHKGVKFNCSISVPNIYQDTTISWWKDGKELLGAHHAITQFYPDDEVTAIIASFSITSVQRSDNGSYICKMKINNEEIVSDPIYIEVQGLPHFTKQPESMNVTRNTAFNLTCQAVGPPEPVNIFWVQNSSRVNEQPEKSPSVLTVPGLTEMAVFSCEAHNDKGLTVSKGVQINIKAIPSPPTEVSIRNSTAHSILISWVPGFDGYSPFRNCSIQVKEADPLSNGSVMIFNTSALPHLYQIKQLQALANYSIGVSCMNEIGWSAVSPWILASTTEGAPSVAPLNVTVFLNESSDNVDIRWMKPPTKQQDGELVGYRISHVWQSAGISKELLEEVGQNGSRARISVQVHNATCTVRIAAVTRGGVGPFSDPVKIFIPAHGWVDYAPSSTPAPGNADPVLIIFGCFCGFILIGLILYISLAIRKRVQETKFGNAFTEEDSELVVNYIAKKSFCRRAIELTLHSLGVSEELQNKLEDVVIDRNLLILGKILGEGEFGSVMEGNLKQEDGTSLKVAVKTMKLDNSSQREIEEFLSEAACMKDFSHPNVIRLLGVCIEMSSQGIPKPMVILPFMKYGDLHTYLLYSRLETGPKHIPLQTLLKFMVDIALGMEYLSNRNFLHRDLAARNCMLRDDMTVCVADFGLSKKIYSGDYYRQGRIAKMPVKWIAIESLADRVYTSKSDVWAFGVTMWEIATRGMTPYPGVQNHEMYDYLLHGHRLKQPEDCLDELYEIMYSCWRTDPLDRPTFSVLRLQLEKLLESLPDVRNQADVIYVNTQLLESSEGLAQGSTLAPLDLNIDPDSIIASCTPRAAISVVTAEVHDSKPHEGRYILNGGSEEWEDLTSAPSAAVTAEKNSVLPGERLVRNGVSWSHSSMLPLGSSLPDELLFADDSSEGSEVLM

[10] = test system: c-Src; assay: as above
[11] = target: Jak2 (UniProt O60674); assay: as above
[12] = target: Fes (UniProt P07332); assay: as above
Sequence of Fes (P07332 whole entry, looked up): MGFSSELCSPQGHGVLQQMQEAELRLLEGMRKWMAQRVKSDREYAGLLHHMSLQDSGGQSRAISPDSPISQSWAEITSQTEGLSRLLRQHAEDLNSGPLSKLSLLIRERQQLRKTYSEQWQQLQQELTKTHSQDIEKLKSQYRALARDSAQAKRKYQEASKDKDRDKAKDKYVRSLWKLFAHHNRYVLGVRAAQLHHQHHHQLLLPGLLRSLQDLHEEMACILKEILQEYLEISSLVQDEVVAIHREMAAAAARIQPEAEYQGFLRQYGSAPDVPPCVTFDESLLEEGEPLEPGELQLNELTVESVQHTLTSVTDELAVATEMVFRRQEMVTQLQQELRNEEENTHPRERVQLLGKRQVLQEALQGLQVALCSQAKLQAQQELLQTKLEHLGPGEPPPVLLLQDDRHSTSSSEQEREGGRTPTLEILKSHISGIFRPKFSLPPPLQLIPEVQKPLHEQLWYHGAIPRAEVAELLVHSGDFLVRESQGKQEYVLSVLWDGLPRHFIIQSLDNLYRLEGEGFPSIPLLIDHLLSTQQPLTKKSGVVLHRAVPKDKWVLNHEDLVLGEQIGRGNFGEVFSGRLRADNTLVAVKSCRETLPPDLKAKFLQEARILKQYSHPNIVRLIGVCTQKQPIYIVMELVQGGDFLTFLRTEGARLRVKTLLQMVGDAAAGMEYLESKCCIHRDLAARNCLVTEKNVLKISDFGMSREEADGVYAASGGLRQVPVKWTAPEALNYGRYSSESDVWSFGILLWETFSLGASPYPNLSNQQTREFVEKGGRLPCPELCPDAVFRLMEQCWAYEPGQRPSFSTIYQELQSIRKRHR

[13] = target: EPHB2 (UniProt P29323); assay: as above
Sequence of EPHB2 (P29323 whole entry, looked up): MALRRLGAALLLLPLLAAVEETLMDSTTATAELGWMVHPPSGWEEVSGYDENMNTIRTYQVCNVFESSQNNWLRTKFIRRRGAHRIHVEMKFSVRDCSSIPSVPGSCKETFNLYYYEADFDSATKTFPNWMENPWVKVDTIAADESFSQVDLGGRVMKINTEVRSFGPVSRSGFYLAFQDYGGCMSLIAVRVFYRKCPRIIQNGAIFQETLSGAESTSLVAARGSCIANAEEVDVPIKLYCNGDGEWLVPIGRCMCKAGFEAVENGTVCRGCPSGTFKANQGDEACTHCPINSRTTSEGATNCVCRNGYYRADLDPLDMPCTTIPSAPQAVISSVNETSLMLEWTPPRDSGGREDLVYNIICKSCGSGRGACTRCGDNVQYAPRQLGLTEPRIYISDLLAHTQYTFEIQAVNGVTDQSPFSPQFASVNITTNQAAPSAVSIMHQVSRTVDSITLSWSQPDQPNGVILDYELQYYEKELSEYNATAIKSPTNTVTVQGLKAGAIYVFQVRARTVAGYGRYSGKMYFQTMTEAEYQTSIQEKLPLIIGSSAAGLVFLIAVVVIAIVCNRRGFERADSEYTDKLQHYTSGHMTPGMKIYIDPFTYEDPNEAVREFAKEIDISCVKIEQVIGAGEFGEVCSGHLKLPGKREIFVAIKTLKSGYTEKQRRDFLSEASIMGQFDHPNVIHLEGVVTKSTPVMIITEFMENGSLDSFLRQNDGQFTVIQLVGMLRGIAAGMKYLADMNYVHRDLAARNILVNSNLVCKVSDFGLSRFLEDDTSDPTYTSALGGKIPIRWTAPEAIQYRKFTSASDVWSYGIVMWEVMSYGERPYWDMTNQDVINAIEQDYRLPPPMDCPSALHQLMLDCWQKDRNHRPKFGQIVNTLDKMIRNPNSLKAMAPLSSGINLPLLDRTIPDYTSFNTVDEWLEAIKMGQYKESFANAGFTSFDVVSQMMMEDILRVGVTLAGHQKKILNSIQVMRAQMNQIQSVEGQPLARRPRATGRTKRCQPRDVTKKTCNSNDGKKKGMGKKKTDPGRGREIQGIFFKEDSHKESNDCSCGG

[14] = target: c-Src SH2; assay: SH2 binding enrichment of the phosphorylated peptide, bacterial display (enrichment ratio); higher = better substrate or ligand; peptides without Tyr show the background
[15] = target: Grb2 SH2 (UniProt P62993); assay: as above
[16] = target: SHP2-C SH2; assay: as above
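For SH2 binding enrichment of the phosphorylated peptide, bacterial display in this document: peptide library displayed on the E. coli surface as eCPX fusions, selected cells deep-sequenced, score is each peptide's frequency after selection divided by its frequency in the input.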
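For phosphorylation enrichment, bacterial display in this document: 11-residue human phosphosite peptides and single-mutation variants displayed on the E. coli surface, counted by deep sequencing, each peptide's frequency after selection divided by its frequency in the unselected input library; frequency after pTyr selection over input frequency; kinase dosed for 20-30% of maximal phosphorylation in three min.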

Sequence of FGFR1 (P11362 whole entry, looked up): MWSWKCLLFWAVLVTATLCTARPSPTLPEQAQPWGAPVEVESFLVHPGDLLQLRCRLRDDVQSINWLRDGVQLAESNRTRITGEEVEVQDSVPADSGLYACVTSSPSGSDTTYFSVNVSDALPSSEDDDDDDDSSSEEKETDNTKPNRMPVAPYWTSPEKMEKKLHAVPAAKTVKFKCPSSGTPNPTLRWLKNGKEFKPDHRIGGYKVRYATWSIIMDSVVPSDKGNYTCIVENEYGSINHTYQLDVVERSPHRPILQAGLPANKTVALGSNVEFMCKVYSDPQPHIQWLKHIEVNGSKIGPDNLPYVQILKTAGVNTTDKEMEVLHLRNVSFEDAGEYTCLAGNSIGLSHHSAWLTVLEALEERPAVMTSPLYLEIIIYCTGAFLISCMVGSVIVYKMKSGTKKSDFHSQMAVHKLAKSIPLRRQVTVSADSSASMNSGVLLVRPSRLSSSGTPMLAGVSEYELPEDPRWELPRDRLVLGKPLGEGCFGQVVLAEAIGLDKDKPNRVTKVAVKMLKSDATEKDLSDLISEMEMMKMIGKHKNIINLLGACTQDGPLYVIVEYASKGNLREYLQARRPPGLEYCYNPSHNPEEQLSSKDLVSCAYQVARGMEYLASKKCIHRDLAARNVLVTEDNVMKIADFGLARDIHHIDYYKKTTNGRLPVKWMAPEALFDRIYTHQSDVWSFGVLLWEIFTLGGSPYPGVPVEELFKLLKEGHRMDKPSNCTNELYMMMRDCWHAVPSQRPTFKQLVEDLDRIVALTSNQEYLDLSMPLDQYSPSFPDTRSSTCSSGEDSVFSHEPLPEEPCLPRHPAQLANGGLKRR

Row | Sequence | SH2 binding enrichment [14] | SH2 binding enrichment [15] | SH2 binding enrichment [16] | phosphorylation enrichment [1] | phosphorylation enrichment [2] | phosphorylation enrichment [3] | phosphorylation enrichment [4] | phosphorylation enrichment [5] | phosphorylation enrichment [6] | phosphorylation enrichment [7] | phosphorylation enrichment [8] | phosphorylation enrichment [9] | phosphorylation enrichment [10] | phosphorylation enrichment [11] | phosphorylation enrichment [12] | phosphorylation enrichment [13]
1 | DAHFTYSRFPW [LY75_Y888_D884A_YF] | 0.719 | 1.06 | 0.942 | 0.499 | 2.72 | 0.748 | 0.736 | 5.79 | 3.13 | 1.05 | 1 | 3.89 | 5.62 | 1.29 | 1.09 | 3.63
2 | DDERGYRRVRS [GIGYF2_Y268] | 0.656 | 0.86 | 0.623 | 0.406 | 0.306 | 0.386 | 0.407 | 0.353 | 0.366 | 0.563 | 0.563 | 0.455 | 0.461 | 0.461 | 0.593 | 0.398
3 | DFDHSYFFIAT [ESD_Y262_G257D_YF] | 0.455 | 0.828 | 0.568 | 0.786 | 0.717 | 8.9 | 7.62 | 0.694 | 0.55 | 2.16 | 0.958 | 0.867 | 0.738 | 7.99 | 1.36 | 0.606
4 | DFFDLYGGKKF [PTPN11_Y66_E69K_YF] | 0.428 | 0.967 | 0.775 | 0.499 | 0.44 | 0.57 | 0.616 | 7.26 | 3.04 | 1.01 | 0.69 | 0.489 | 3.49 | 0.974 | 1.02 | 0.519
5 | DIRAQYDELAR [KRT18_Y256] | 7.06 | 0.931 | 0.702 | 0.503 | 0.452 | 0.576 | 0.592 | 0.761 | 0.58 | 1.02 | 0.766 | 0.47 | 0.474 | 1.04 | 1.01 | 0.483
6 | DKANRYFSPNV [PTEN_Y336_F341V] | 0.644 | 0.808 | 0.839 | 0.363 | 0.297 | 0.355 | 0.504 | 0.376 | 0.378 | 0.446 | 0.486 | 0.354 | 0.388 | 0.412 | 0.544 | 0.394
7 | DLAAQYTTVGH [SGSH_Y240_R245H] | 3.24 | 0.843 | 1.41 | 0.519 | 0.463 | 0.462 | 0.651 | 0.96 | 0.585 | 0.854 | 0.593 | 0.405 | 0.699 | 0.586 | 0.947 | 0.453
8 | DLRTGYSVPFG [TGM1_Y370_Y365D_YF] | 7.49 | 0.973 | 0.928 | 0.486 | 0.44 | 0.493 | 0.644 | 0.418 | 0.48 | 0.664 | 0.794 | 0.364 | 0.341 | 0.576 | 0.721 | 0.468
9 | DPGVSYRTREE [PDHA1_Y301] | 0.732 | 0.744 | 0.844 | 0.368 | 0.385 | 0.637 | 0.53 | 0.461 | 0.409 | 0.891 | 0.647 | 0.378 | 0.376 | 0.549 | 0.809 | 0.61
10 | DPKFHYDNTAG [KDR_Y1214] | 0.738 | 0.989 | 0.646 | 0.401 | 0.373 | 0.467 | 0.489 | 0.496 | 0.524 | 0.667 | 0.497 | 0.505 | 0.547 | 0.698 | 0.79 | 0.422
11 | DRFANYIEKVR [DES_Y122] | 0.473 | 0.769 | 0.743 | 0.41 | 0.523 | 0.419 | 0.508 | 0.42 | 0.434 | 0.628 | 0.728 | 0.367 | 0.425 | 1.02 | 0.759 | 0.424
12 | DRLAVYIDRVR [LMNA_Y45] | 0.682 | 1.07 | 0.861 | 0.488 | 0.542 | 0.418 | 0.745 | 0.434 | 0.476 | 1.24 | 0.61 | 0.41 | 0.359 | 0.892 | 1.11 | 0.554
13 | DSNLIYSQIWS [FCRL3_Y662_P660L] | 0.538 | 0.754 | 0.951 | 15.7 | 15.2 | 7.38 | 6.79 | 9.1 | 9.04 | 2.1 | 15.4 | 10 | 7.08 | 2.46 | 12.2 | 17.1
14 | DYLEKYYKFGS [NNMT_Y24] | 0.623 | 0.922 | 0.727 | 0.369 | 0.33 | 0.486 | 0.553 | 0.402 | 0.436 | 0.631 | 0.458 | 0.494 | 0.636 | 0.791 | 0.768 | 0.436
15 | EAEPFYRSLRD [NPHS1_Y1139_YF] | 0.521 | 1.19 | 0.628 | 0.451 | 0.461 | 0.536 | 0.707 | 0.644 | 0.433 | 0.792 | 0.743 | 0.539 | 0.53 | 0.893 | 1.18 | 0.545
16 | EAEPYYCSLRD [NPHS1_Y1139_R1140C] | 1.91 | 0.931 | 0.908 | 1.85 | 1.17 | 1.34 | 1.31 | 2.94 | 3.37 | 1.78 | 1.62 | 2.28 | 4.11 | 1.33 | 1.43 | 1.21
17 | EALDFYGELRT [PTEN_Y155_V158L] | 0.503 | 0.775 | 0.731 | 0.779 | 0.771 | 0.571 | 0.964 | 1.25 | 0.933 | 1.27 | 0.843 | 0.453 | 0.805 | 1.33 | 1.48 | 0.764
18 | EASEQYLTKAS [NRCAM_Y739] | 0.417 | 0.901 | 0.696 | 0.463 | 0.424 | 0.571 | 0.556 | 0.43 | 0.496 | 0.711 | 0.798 | 0.485 | 0.458 | 0.793 | 0.802 | 0.425
19 | EEALHYLTRVE [SET_Y119] | 0.532 | 0.758 | 1.16 | 0.492 | 0.73 | 0.47 | 0.724 | 0.586 | 0.466 | 1.02 | 0.748 | 0.469 | 0.462 | 1 | 1.13 | 0.536

Continued, in another order:

Row | SH2 binding enrichment [14] | SH2 binding enrichment [15] | SH2 binding enrichment [16] | Sequence | phosphorylation enrichment [1] | phosphorylation enrichment [2] | phosphorylation enrichment [3] | phosphorylation enrichment [4] | phosphorylation enrichment [5] | phosphorylation enrichment [6] | phosphorylation enrichment [7] | phosphorylation enrichment [8] | phosphorylation enrichment [9] | phosphorylation enrichment [10] | phosphorylation enrichment [11] | phosphorylation enrichment [12] | phosphorylation enrichment [13]
20 | 0.527 | 0.694 | 0.713 | DFTSRYLSASD [PKHD1_Y828_N830S] | 0.42 | 0.549 | 0.535 | 0.605 | 0.453 | 0.466 | 0.79 | 0.546 | 0.46 | 0.329 | 0.625 | 0.846 | 0.564
21 | 0.512 | 0.824 | 0.688 | DKATEYSQFMR [MAX_Y70_I71S_YF] | 0.392 | 0.39 | 0.449 | 0.397 | 0.631 | 0.733 | 0.84 | 0.519 | 0.423 | 0.873 | 0.524 | 0.683 | 0.541
22 | 0.43 | 0.897 | 0.642 | DLQDENDFKCK [STAT1_Y170_Y170N] | 0.612 | 0.621 | 0.568 | 0.853 | 0.602 | 0.548 | 1.42 | 0.812 | 0.415 | 0.498 | 1.55 | 1.86 | 0.737
23 | 0.524 | 0.979 | 0.911 | DPEGAYTTRGG [EPHA3_Y779_A777G] | 0.515 | 0.497 | 0.369 | 0.534 | 0.483 | 0.394 | 0.896 | 0.789 | 0.412 | 0.536 | 0.774 | 0.798 | 0.501
24 | 0.67 | 1.19 | 0.797 | DPLLTYWFPPK [LMNA_Y481_R482W] | 0.933 | 12.6 | 8.47 | 6.67 | 7.34 | 6.5 | 2.78 | 11.6 | 9.17 | 6.1 | 5.74 | 1.13 | 14.8
25 | 1.09 | 0.874 | 0.762 | DPYHVYIKNRV [KCNE3_Y95] | 0.375 | 0.544 | 0.407 | 0.628 | 0.958 | 1.02 | 0.973 | 0.832 | 0.396 | 2.15 | 0.872 | 1.02 | 0.567
26 | 0.593 | 0.724 | 0.661 | DSASAYADEVK [ETNPPL_Y189] | 0.53 | 0.536 | 0.655 | 0.685 | 0.653 | 0.549 | 1.28 | 0.685 | 0.601 | 0.638 | 1.15 | 1.04 | 0.544
27 | 1.02 | 0.739 | 0.618 | DVCKNYAEAKD [ALB_Y343] | 0.495 | 0.541 | 0.569 | 0.702 | 0.571 | 0.509 | 1.07 | 0.804 | 0.448 | 0.55 | 1.14 | 1.19 | 0.561
28 | 0.47 | 0.718 | 0.537 | DVMDFYKTLRG [NR3C1_Y30] | 0.41 | 0.404 | 0.393 | 0.484 | 0.434 | 0.451 | 0.719 | 0.571 | 0.394 | 0.342 | 0.685 | 0.728 | 0.423
29 | 0.541 | 1.1 | 0.692 | DVQNEYDSNHC [ZFYVE16_Y36_A35E] | 0.414 | 0.508 | 0.512 | 0.665 | 0.576 | 0.59 | 1.01 | 0.671 | 0.477 | 0.444 | 0.701 | 1.07 | 0.513
30 | 0.668 | 0.941 | 0.616 | EAEPFYCSLRD [NPHS1_Y1139_R1140C_YF] | 2.19 | 1.19 | 0.668 | 0.896 | 2.54 | 2.66 | 1.54 | 0.878 | 1.67 | 2.86 | 1.17 | 1.36 | 1.27
31 | 0.493 | 0.659 | 0.642 | EAIMTYVSSFF [ACTN4_Y260_K255E_YF] | 0.468 | 0.621 | 0.501 | 0.675 | 0.643 | 0.778 | 1.02 | 0.842 | 0.422 | 0.975 | 0.9 | 1.04 | 0.726
32 | 0.504 | 0.805 | 0.604 | EARRVYGDIIY [ALDH5A1_Y175_H180Y] | 0.648 | 0.455 | 0.491 | 0.579 | 1.27 | 1.59 | 0.683 | 0.597 | 0.42 | 1.14 | 0.813 | 0.834 | 0.725
33 | 0.414 | 0.774 | 0.796 | EEALFYLTRVE [SET_Y119_H118Y_YF] | 0.835 | 0.967 | 0.599 | 1.05 | 0.68 | 0.58 | 1.43 | 1.03 | 0.472 | 0.557 | 1.61 | 1.67 | 0.828
